Data on three variants can be found in IntAct's records for PubMed 22396535.

B1: Paired immunoglobulin-like type 2 receptor alpha (Homo sapiens), Q9UKJ1 (parent)
chain: MGRPLLLPLLPLLLPPAFLQPSGSTGSGPSYLYGVTQPKHLSASMGGSVEIPFSFYYPWELATAPDVRISWRRGHFHRQSFYSTRPPSIHKDYVNRLFLNWTEGQKSGFLRISNLQKQDQSVYFCRVELDTRSSGRQQWQSIEGTKLSITQAVTTTTQRPSSMTTTWRLSSTTTTTGLRVTQGKRRSDSWHISLETAVGVAVAVTVLGIMILGLICLLRWRRRKGQQRTKATTPAREPFQNTEEPYENIRNEGQNTDPKLNPKDDGIVYASLALSSSTSPRAPPSHRPLKSPQNETLYSVLKA
B2: Paired immunoglobulin-like type 2 receptor alpha (Homo sapiens), Q9UKJ1 (parent)
chain: B1 chain
partner: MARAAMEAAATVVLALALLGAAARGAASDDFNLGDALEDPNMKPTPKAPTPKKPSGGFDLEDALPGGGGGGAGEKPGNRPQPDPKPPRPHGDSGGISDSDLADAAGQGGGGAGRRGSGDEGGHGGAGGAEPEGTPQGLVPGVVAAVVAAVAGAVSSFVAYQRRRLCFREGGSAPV
B3: Paired immunoglobulin-like type 2 receptor alpha (Homo sapiens), Q9UKJ1 (parent)
chain: B1 chain
partner: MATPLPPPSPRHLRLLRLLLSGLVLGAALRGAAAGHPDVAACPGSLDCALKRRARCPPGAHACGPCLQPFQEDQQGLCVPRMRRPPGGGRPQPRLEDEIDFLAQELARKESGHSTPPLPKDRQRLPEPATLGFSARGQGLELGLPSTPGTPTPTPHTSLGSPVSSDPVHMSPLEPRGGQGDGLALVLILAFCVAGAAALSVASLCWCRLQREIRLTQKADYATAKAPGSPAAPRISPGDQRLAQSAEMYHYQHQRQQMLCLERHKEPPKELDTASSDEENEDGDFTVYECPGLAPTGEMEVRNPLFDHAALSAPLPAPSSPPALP

The variants in the first experiment derive from B1. The settings on record: with col12_human COLEC12, Q5KU26.
col12_human COLEC12, Q5KU26, sequence (Q5KU26 whole entry): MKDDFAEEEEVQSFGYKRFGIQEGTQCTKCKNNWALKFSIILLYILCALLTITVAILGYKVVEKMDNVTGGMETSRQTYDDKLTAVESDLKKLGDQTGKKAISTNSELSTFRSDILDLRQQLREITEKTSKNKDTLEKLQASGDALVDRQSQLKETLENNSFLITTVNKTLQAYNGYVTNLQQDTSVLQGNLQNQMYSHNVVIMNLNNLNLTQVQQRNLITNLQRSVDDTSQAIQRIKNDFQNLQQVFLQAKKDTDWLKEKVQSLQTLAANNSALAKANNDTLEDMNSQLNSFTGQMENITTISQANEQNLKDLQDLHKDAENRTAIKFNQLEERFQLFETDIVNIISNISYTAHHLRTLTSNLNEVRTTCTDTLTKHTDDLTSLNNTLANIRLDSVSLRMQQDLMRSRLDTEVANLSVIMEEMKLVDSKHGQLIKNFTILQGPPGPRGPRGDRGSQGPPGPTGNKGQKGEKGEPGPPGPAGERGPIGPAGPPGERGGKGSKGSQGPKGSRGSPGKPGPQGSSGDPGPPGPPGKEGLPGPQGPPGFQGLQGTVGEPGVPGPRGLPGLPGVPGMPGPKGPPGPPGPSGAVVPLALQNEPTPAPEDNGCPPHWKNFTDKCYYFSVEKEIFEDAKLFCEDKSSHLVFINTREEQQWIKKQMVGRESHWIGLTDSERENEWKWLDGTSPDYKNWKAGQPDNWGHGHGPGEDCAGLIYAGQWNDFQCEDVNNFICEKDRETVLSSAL
For R126A, the “effect of a mutation on the interaction” value is recorded as “disrupting interaction strength”.

Variants of B2 are the subject of a further experiment. The settings on record: with cd99_mouse Cd99, Q8VCN6.
For R126A, the “effect of a mutation on the interaction” value is “disrupting interaction strength”.

Variants of B3 are the subject of a further experiment. The settings on record: with npdc1_human NPDC1, Q9NQX5.
As for R126A, the “effect of a mutation on the interaction” value is recorded as “disrupting interaction strength”.
